Changes are numbered by the printed parent chain.

Among the data in publication doi:10.1101/2024.10.22.619416 (bioRxiv, 2024) are Kd values, retold here.

This experiment has as its target SARS-CoV-2 (2019-nCoV) Spike RBD protein (SARS-CoV-2 (2019-nCoV), ancestral …, UniProt P0DTC2). The experiment can be described thus: BLI. On the technique in general: BLI is a label-free optical method that tracks binding on a fibre tip over time.

B1: alpaca nanobody 3-2A2-4 (VHH)
VHH: QVQLQESGGGLVQPGESLRLSCAASGSISTLNVMGWYRQAPGKQRELVAQITLDGSPEYADSVKGRFTITKDGAQSTLYLQMNNLKPEDTAVYFCKLENGGFFYYWGQGTQVTVST
As usually defined, the Kd is the equilibrium constant for the complex coming apart. Molecule B1 displayed a Kd of 5.47 nM.

B2: humanized antibody hAb1.1 (antibody, V domains shown)
VH: QVQLQESGPGLVKPSETLSLTCSVSGFSLINYAISWIRQPPGKGLEWIGVIWTGGGTNYNSALKSRLTISRDTSKNQVFLKMNSVTAADTAVYYCARKDYYGRYYGMDYWGQGTLVTVSS
VL: QAVVTQEPSLTVSPGGTVTLTCRSSTGAVTTSNYANWLQQKPGQAPRGLIGGTNNRAPGVPPRFSGSILGDKAALTLSGAQSEDEADYYCALWYNNHWVFGGGTKLTVL
The molecule B2 displayed a Kd of 0.27 nM.

B3: humanized antibody hAb1.2 (antibody, V domains shown)
VH: B2 VH with S23T, P40A, N76S, M82L
VL: B2 VL with L38F, G59W, P62D, I68L, D71G, S82P
Molecule B3 displayed a Kd of 0.15 nM.

B4: humanized antibody hAb1.5 (antibody, V domains shown)
VH: B2 VH with S23T, P40A, R71V, N76S, V78F, F79S, M82L, N83S
VL: B2 VL with L38F, K41R, A45P, P62A, D71G, S82P
B4 yielded a Kd of 6.37 nM.

B5: humanized antibody hAb1.4 (antibody, V domains shown)
VH: B2 VH with S23T, I37V, P40A, R71V, N76S, F79S, K81R, M82L, N83S
VL: B2 VL with L38F, P62A, D71G, S82P
The molecule B5 came in with a Kd of 1.03 nM.

B6: humanized nanobody hNb1.1 (VHH)
VHH: EVQLVESGGGLVQPGGSLRLSCAASGSISTLNVMGWFRQAPGKGREWVAAITLDGSPYYADSVKGRFTISRDNAKNTLYLQMNSLRPEDTAVYYCKLENGGFFYYWGQGTQVTVSS
As to B6, the dissociation constant (Kd) amounted to 2.52 nM.

B7: humanized nanobody hNb1.5 (VHH)
VHH: B6 VHH with F37Y, G44Q, W47L, A50Q, Y58E, A74S, R86K
In turn, B7 displayed a Kd of 7.4 nM.

B8: humanized nanobody hNb1.4 (VHH)
VHH: B6 VHH with F37Y, G44Q, W47L, A50Q, Y58E, P87A
On to B8, for which the Kd came to 5.83 nM.

B9: humanized nanobody hNb1.3 (VHH)
VHH: B6 VHH with G35S, F37V, R45L, A49S, A50S, Y58N, A74S, P87V, Q111L
B9 yielded an equilibrium dissociation constant (Kd) of 58.2 nM.

B10: humanized nanobody hNb1.2 (VHH)
VHH: B6 VHH with G35S, F37V, R45L, A49S, A50S, A74S, P87V, Q111L
The molecule B10 registered a Kd of 45.7 nM.
